Assay results: patent CN114316047A (DONGDA BIOTECHNOLOGY SUZHOU CO LTD, dated 2022)

Key:
[1] = molecular target: T1, 人的PD-1胞外区与人Fc融合蛋白(PD-1-ECD-hFc) (human, UniProt Q15116 25-170); assay: ELISA, PD-1-ECD-hFc coated, goat anti-mouse IgG detection
T1 construct: extracellular domain; Coated on ELISA plates; also called PD-1-hFc; not shown: human Fc

[2] = molecular target: T1, 人的PD-1胞外区与人Fc融合蛋白(PD-1-ECD-hFc); assay: competition ELISA, PD-1-ECD-hFc coated, competitor PD-L1-Biotin
PD-1 on 293T-PD-1 cells [3] = molecular target: T2, PD-1 on 293T-PD-1 cells (UniProt Q15116 25-288, limits assumed); assay: FACS on 293T-PD-1 cells, PE goat anti-mouse detection
T2 construct: whole, on cells; the antibodies are anti-human PD-1

PD-1 on 293T-PD-1 cells [4] = molecular target: T2, PD-1 on 293T-PD-1 cells; assay: competition FACS on 293T-PD-1 cells, competitor PD-L1-biotin (row head prints EC50, title IC50)
[5] = molecular target: T1, 人的PD-1胞外区与人Fc融合蛋白(PD-1-ECD-hFc); assay: competition ELISA, coated PD-1-hFc (per table title; figure 7 legend says PD-1-mFc), competitor PD-L1-Biotin
[6] = molecular target: T3, 人的PD-1胞外区与小鼠Fc融合蛋白(PD-1-ECD-mFc) (human, UniProt Q15116 25-170); assay: ELISA on coated PD-1-mFc (antigen per legend of figure 6)
T3 construct: extracellular domain; also called PD-1-mFc; not shown: mouse Fc

PD-1 on 293T-PD-1 cells [7] = molecular target: T2, PD-1 on 293T-PD-1 cells; assay: FACS on 293T-PD-1 cells

T1 sequence (Q15116 25-170): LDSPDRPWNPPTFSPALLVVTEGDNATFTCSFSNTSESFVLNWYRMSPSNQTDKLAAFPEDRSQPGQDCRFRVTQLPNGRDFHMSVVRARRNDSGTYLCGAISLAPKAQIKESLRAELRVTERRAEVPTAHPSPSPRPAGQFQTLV
T2 sequence (Q15116 25-288 limits assumed): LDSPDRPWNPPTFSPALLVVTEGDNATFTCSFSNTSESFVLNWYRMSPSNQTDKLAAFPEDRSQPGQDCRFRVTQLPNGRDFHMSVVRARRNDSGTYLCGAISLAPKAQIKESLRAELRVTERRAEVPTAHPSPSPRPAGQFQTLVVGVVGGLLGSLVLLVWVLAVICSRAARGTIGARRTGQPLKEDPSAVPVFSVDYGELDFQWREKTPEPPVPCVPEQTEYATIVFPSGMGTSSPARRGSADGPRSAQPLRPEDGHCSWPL
T3 sequence (Q15116 25-170): as the sequence (Q15116 25-170) above

| Binder | EC50 [1] [µg/mL] | IC50 [2] [µg/mL] | EC50 (PD-1 on 293T-PD-1 cells [3]) [µg/mL] | IC50 (PD-1 on 293T-PD-1 cells [4]) [µg/mL] | IC50 [5] [µg/mL] | EC50 [6] [µg/mL] | EC50 (PD-1 on 293T-PD-1 cells [7]) [µg/mL] |
| --- | --- | --- | --- | --- | --- | --- | --- |
| 5F7 (antibody, V domains shown, Mouse monoclonal antibody purified from hybridoma supernatant by Protein A; also called 鼠源PD-1单克隆抗体5F7; PD-1杂交瘤抗体5F7) VH: EVMLVESGGDLVKPGGSLKLSCAASGFTFSSYMMSWVRQTPEKRLEWVAAISGGGGDTYYPDSVKGRFTISRDNAKNTLYLQMSSLRSEDTALYYCARRVVYAMDCWGQGTSVTVSS VL: DIQMTQSPASQSASLGESVTITCLASQSIGTWLVWYQQKPGKSPQLLISAATSLADGVPSRFSGSGSGTKFSFKISSLQAEDFVSYYCQQLYIIPWTFGGGTKLEIK | 0.00123 | 0.324 | 0.0176 | 0.0181 |  |  |  |
| 5H10 (antibody, V domains shown, Mouse monoclonal antibody purified from hybridoma supernatant by Protein A; also called 鼠源PD-1单克隆抗体5H10; PD-1杂交瘤抗体5H10) VH: EVQLVESGGGLVKPGGSLKLSCAASGFTFSDYGMHWVRQAPEKGLEWVAYISGDSNTIYYADTVKGRFTISRDNAKNTLFLQMTSLRSEDTAMYYCTKRGPYYGYTHYFDYWGQGTTLTVSS VL: SIVMTQTPKFLLVSAGDRVTMTCKASQSVSNDVVWYQQKPGQSPKLLIYYASKRYTGVPDRFTGNGYGTDFTFTISTVQAEDLAVYFCQQDYSSPWTFGGGTKLEIK | 0.00109 | 0.339 | 0.0643 | 0.0412 |  |  |  |
| 4B5 (antibody, V domains shown, Mouse monoclonal antibody purified from hybridoma supernatant by Protein A; also called 鼠源PD-1单克隆抗体4B5; PD-1杂交瘤抗体4B5) VH: EVILVESGGDLVKPGGSLKLSCAASGFTFSSYMMSWVRQTPEKRLEWVATISGGGANTYYLDSMKGRFTISRDNAKNILYLQMSSLRSEDTAFYYCARQSDRGFPYWGQGTLVTVSA VL: DIQMTQSPASQSASLGESVTITCLASQPIGTWLAWYQQKPGTSPQLLIFAATTLTDGVPSRFSGSGSGTKFSFKISSLQAEDFVSYYCQQFSSIPYTFGGGTRLEIK | 0.00175 | 0.343 | 0.04 | 0.0355 |  |  |  |
| 8D4 (antibody, V domains shown, Mouse monoclonal antibody purified from hybridoma supernatant by Protein A; also called 鼠源PD-1单克隆抗体8D4; PD-1杂交瘤抗体8D4) VH: EVQLQQSGTVLARPGASVKMSCKTSGYTFTNFWMHWVKQRPGQGLDWIGAIFPGNTDTTYNRKFKDKAKLTAVTSASTAYMELSSLTNEDSAVYYCTRNHYGLDYWGQGTSVTVSS VL: DIVLTQSPASLAVSLGQRATISCRASESVSIHGTHLMHWYQQKPGQPPKLLIYIASNLGSGVPARFSGSGSETDFTLNIHPVEEEDAATYFCQQSIEDPWTFGGGTKLEIK | 0.00261 | 0.37 | 0.0443 | 0.0296 |  |  |  |

The remaining lines, values ahead:

| EC50 [1] [µg/mL] | IC50 [2] [µg/mL] | EC50 (PD-1 on 293T-PD-1 cells [3]) [µg/mL] | IC50 (PD-1 on 293T-PD-1 cells [4]) [µg/mL] | IC50 [5] [µg/mL] | EC50 [6] [µg/mL] | EC50 (PD-1 on 293T-PD-1 cells [7]) [µg/mL] | Binder |
| --- | --- | --- | --- | --- | --- | --- | --- |
|  |  |  |  | 0.332 | 0.00532 | 0.285 | hu9H8-hIgG4 (antibody, V domains shown, Humanised antibody built as IgG4 subtype, expressed in 293 cells; also called 9H8人源化抗体; 人源化抗体9H8) VH: EVQLLESGGGLVQPGGSLRLSCAASGFTFSDYYMYWVRQAPGKGLEWVSQISNGGGNTYYPDTVKGRFTISRDNSKNTLYLQMNSLRAEDTAVYYCSKSYYKYDGWYFDVWGQGTLVTVSS VL: DIVMTQSPDSLAVSLGERATINCRASESVEYSRTSLIQWYQQKPGQPPKLLIYAASYVESGVPDRFSGSGSGTDFTLTISSLQAEDVAVYYCQQARKVPWTFGQGTKLEIK |
| 0.000511 | 0.319 | 0.0203 | 0.00854 |  |  |  | 9H8 (antibody, V domains shown, Mouse monoclonal antibody purified from hybridoma supernatant by Protein A; also called 鼠源PD-1单克隆抗体9H8; PD-1杂交瘤抗体9H8) VH: EVKLVESGGGLVQPGGSLKLSCATSGFTFSDYYMYWVRQTPEKRLEWVAQISNGGGNTYYPDTVKGRFTISRDNAKNTLYLQMSRLKSEDTAIYYCSKSYYKYDGWYFDVWGAGTTVTVSS VL: DIVLTQSPASLAVSLGQRATISCRASESVEYSRTSLIQWYQLKPGQPPKLLIYAASYVESGVPDRFSGSGSGTEFSFNIHPVEEDDIAMYFCQQARKVPWTFGGGTNLEIK |
| 0.00114 | 0.361 | 0.0314 | 0.0276 |  |  |  | 10A10 (antibody, V domains shown, Mouse monoclonal antibody purified from hybridoma supernatant by Protein A; also called 鼠源PD-1单克隆抗体10A10; PD-1杂交瘤抗体10A10) VH: EVKLVESGGDLVKPGGSLKLSCAASGFTFNYYDISWVRQTPEKRLEWVATISGGGRYTYYLDNVQGRFTISRDNAKNILYLQMNSLRSDDTALYFCASPYEGAMDYWGQGTSVTVSS VL: DIVMTQSHKFMSTSIGDGVNITCKASQDVGTAVAWYQQKPGQSPKLLNKWASTRHTGVPDRFTGSGSGTDFTLTINNVQSEDLADYFCQQYSTFPYTFGGGTNLELK |
|  |  |  |  | 0.851 | 0.0489 | 0.311 | hu8D4-hIgG4 (antibody, part only; not given: Light chain variable domain, constant regions, V domains shown, part only) VH: QVQLVQSGAEVKKPGASVKVSCKASGYTFTNFWMHWVRQAPGQRLEWIGAIFPGNTDTTYNRKFKDRATLTADTSASTAYMELSSLRSEDTAVYYCTRNHYGLDYWGQGTLVTVSS |
